From the supplement of paper PMC10065799, “High-throughput profiling of sequence recognition by tyrosine kinases and SH2 domains using bacterial peptide display” (eLife, 2023)

What was measured:
AncSZ = experiment: phosphorylation enrichment, bacterial display (enrichment ratio); higher = better substrate or ligand; peptides without Tyr show the background
EPHB1 = EPHB1 (UniProt P54762); experiment: as above
EPHB2 = EPHB2 (UniProt P29323); experiment: as above
FGFR1 = FGFR1 (UniProt P11362); experiment: as above
FGFR3 = FGFR3 (UniProt P22607); experiment: as above
Fer (mouse) = experiment: as above
Fes = Fes (UniProt P07332); experiment: as above
Fyn = Fyn (UniProt P06241); experiment: as above
Hck = Hck (UniProt P08631); experiment: as above
Jak2 = Jak2 (UniProt O60674); experiment: as above
MERTK = MERTK (UniProt Q12866); experiment: as above
c-Abl (mouse) = experiment: as above
c-Src = experiment: as above
Grb2 SH2 = Grb2 SH2 (UniProt P62993); experiment: SH2 binding enrichment of the phosphorylated peptide, bacterial display (enrichment ratio); higher = better substrate or ligand; peptides without Tyr show the background
SHP2-C SH2 = experiment: as above
c-Src SH2 = experiment: as above
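Throughout, for SH2 binding enrichment of the phosphorylated peptide, bacterial display: peptide library displayed on the E. coli surface as eCPX fusions, selected cells deep-sequenced, score is each peptide's frequency after selection divided by its frequency in the input.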
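Throughout, for phosphorylation enrichment, bacterial display: 11-residue human phosphosite peptides and single-mutation variants displayed on the E. coli surface, counted by deep sequencing, each peptide's frequency after selection divided by its frequency in the unselected input library; frequency after pTyr selection over input frequency; kinase dosed for 20-30% of maximal phosphorylation in three min.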

Sequence of MERTK (Q12866 whole entry, looked up): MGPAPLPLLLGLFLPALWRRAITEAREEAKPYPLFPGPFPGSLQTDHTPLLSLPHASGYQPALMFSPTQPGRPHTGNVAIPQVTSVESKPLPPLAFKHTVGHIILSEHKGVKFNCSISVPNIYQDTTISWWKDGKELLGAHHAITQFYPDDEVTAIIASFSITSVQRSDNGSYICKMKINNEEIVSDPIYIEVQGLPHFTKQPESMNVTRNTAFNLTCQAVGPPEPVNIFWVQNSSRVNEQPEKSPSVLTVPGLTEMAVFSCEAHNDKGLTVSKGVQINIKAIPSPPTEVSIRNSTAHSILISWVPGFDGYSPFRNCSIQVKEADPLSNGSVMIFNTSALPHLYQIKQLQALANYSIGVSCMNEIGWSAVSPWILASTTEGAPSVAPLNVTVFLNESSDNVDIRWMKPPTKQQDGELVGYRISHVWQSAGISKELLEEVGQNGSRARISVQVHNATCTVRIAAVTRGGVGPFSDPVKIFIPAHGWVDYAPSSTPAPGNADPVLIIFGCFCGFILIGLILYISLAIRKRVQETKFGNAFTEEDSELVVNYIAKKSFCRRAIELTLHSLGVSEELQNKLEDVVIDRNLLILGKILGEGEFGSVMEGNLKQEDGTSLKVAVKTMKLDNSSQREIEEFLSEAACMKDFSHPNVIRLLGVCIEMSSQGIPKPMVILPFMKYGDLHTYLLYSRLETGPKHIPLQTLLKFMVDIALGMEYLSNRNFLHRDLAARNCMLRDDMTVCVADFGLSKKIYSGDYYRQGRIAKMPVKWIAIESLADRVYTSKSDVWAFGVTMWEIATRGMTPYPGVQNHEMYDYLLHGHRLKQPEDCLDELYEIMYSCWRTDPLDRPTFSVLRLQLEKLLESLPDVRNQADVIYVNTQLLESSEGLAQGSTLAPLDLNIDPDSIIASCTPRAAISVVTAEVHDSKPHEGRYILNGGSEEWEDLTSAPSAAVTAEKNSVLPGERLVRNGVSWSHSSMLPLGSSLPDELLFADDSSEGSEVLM
Sequence of FGFR3 (P22607 whole entry, looked up): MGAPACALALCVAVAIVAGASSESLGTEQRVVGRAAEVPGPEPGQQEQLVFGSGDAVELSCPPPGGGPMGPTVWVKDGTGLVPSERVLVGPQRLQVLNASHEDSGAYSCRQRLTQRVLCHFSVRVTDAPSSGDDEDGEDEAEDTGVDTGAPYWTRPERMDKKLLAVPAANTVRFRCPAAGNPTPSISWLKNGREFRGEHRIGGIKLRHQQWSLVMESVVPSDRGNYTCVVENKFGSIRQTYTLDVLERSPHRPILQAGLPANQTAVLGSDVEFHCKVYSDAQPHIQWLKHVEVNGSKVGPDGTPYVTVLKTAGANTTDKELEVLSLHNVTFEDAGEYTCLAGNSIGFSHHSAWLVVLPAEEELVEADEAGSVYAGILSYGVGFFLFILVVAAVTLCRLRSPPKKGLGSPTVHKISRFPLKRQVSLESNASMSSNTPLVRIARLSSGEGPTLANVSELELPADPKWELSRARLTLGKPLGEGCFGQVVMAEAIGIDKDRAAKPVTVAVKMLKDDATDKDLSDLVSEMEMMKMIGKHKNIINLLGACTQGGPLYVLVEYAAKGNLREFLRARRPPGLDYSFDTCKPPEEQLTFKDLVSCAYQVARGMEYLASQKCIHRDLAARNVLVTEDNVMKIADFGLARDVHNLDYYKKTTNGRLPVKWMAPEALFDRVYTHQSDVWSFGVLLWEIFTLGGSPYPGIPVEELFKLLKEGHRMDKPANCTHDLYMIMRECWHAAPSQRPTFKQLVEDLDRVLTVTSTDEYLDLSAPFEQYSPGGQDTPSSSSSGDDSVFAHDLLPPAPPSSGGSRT
Sequence of EPHB1 (P54762 whole entry, looked up): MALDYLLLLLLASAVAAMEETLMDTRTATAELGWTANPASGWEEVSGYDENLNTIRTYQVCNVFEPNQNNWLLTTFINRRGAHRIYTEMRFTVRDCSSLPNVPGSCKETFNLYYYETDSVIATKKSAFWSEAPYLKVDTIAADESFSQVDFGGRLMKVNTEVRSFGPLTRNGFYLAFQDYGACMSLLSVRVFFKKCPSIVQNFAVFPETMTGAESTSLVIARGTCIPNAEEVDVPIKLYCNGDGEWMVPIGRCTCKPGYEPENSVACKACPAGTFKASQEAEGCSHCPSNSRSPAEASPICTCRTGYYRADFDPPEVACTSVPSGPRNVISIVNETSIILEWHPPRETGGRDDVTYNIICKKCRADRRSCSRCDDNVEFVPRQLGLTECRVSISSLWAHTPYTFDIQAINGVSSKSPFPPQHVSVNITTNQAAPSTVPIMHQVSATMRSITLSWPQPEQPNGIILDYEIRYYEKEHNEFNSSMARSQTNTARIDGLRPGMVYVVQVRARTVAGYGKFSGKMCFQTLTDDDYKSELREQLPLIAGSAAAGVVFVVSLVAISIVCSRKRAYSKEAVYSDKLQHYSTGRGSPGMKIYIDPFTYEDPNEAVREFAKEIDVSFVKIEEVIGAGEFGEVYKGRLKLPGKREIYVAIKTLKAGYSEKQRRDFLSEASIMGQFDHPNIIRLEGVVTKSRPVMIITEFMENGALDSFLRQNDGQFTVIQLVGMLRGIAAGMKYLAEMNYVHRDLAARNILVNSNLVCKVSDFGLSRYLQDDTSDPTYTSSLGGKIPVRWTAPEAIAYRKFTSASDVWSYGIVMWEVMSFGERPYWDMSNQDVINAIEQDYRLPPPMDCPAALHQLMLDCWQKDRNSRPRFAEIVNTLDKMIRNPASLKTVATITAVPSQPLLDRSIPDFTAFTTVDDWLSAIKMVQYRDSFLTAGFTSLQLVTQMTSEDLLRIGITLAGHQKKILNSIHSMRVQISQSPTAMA
Sequence of FGFR1 (P11362 whole entry, looked up): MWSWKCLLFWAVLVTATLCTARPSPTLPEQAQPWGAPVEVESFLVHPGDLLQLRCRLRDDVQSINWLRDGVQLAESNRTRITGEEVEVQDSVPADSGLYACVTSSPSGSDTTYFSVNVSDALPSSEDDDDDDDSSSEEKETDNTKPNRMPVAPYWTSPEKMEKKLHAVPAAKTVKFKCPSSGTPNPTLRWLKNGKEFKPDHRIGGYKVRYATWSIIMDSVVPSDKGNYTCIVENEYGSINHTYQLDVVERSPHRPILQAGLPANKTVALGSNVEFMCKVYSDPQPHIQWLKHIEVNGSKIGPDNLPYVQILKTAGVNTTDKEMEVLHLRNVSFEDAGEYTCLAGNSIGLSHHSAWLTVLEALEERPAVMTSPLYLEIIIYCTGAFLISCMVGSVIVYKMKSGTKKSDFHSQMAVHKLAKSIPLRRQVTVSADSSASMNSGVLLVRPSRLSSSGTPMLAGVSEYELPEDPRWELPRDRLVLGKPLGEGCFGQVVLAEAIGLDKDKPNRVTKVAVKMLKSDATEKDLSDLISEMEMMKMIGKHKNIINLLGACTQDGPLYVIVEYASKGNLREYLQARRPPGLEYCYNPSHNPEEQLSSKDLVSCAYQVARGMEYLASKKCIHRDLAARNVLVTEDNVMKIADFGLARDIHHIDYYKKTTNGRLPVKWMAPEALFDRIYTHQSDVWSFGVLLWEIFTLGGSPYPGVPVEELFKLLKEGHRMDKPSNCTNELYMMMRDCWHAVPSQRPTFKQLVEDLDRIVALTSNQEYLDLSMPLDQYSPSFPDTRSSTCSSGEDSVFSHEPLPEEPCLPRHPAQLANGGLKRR
Sequence of Jak2 (O60674 whole entry, looked up): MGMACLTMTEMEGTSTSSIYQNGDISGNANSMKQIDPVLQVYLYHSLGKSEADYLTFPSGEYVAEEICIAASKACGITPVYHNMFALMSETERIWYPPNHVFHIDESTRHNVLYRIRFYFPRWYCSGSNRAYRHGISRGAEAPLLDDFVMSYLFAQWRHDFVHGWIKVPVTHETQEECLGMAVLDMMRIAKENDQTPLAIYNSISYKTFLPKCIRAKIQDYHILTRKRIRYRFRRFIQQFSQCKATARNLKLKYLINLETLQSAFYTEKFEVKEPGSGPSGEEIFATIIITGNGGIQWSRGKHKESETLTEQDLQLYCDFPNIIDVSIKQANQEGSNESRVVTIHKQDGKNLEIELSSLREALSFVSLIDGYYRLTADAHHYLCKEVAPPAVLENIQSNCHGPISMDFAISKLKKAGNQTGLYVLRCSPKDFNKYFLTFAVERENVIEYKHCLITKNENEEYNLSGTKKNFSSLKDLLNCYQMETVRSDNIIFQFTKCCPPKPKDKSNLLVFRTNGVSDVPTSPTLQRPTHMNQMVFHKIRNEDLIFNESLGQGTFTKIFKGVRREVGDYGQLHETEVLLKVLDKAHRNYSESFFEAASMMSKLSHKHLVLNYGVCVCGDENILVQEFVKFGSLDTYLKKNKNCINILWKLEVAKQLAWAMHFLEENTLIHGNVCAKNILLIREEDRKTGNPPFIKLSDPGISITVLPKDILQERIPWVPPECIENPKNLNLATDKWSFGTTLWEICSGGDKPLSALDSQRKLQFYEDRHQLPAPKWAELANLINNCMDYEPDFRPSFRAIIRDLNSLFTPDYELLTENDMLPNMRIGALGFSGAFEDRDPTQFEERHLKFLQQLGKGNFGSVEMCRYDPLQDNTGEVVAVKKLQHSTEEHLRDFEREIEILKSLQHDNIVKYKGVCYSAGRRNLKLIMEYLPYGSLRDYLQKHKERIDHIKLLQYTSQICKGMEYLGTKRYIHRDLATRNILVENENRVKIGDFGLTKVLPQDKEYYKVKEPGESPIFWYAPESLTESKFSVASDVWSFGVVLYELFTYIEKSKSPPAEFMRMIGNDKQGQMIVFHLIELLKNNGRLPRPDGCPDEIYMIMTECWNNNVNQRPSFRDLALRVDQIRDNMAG

Sequence | SH2 binding enrichment (Grb2 SH2) | SH2 binding enrichment (SHP2-C SH2) | SH2 binding enrichment (c-Src SH2) | phosphorylation enrichment (AncSZ) | phosphorylation enrichment (EPHB1) | phosphorylation enrichment (EPHB2) | phosphorylation enrichment (FGFR1) | phosphorylation enrichment (FGFR3) | phosphorylation enrichment (Fer (mouse)) | phosphorylation enrichment (Fes) | phosphorylation enrichment (Fyn) | phosphorylation enrichment (Hck) | phosphorylation enrichment (Jak2) | phosphorylation enrichment (MERTK) | phosphorylation enrichment (c-Abl (mouse)) | phosphorylation enrichment (c-Src)
EYQKKYSDADI [CKAP5_Y1860_K1857Q] | 1 | 0.808 | 0.473 | 0.913 | 0.491 | 0.481 | 0.46 | 0.589 | 0.597 | 0.998 | 0.37 | 0.383 | 0.841 | 0.432 | 0.706 | 0.45
FAELVYTGFWH [ASS1_Y322] | 0.87 | 0.698 | 0.524 | 1.54 | 2.21 | 2.59 | 2.22 | 1.85 | 6.97 | 1.41 | 8.14 | 6 | 1.67 | 6.23 | 8.78 | 7.01
FARNSYVAGQY [G6PD_Y107] | 0.826 | 0.651 | 0.495 | 0.516 | 0.322 | 0.4 | 0.403 | 0.415 | 0.347 | 0.544 | 0.389 | 0.385 | 0.502 | 0.405 | 0.449 | 0.535
FCRHNYGVGES [HLA-DRB1_Y112_V115G_YF] | 1.02 | 0.827 | 0.738 | 0.657 | 0.421 | 0.527 | 0.387 | 0.573 | 0.396 | 0.687 | 0.498 | 0.339 | 0.62 | 0.372 | 0.606 | 0.373
FDGKEYDPVEA [MAPRE2_Y167_YF] | 0.985 | 0.408 | 0.795 | 1.5 | 0.636 | 0.545 | 0.545 | 0.801 | 0.631 | 1.43 | 0.62 | 0.617 | 1.2 | 0.493 | 0.924 | 0.573
FETVKYFNNER [ABCB7_Y345_YF] | 0.862 | 1.04 | 0.509 | 0.828 | 0.564 | 0.445 | 0.417 | 0.606 | 0.465 | 0.898 | 0.39 | 0.381 | 0.702 | 0.288 | 0.567 | 0.345
FFTEEYVRAHP [DOCK2_Y1555_D1558A] | 0.728 | 0.619 | 0.431 | 1.54 | 0.66 | 0.664 | 0.556 | 0.944 | 0.553 | 1.32 | 0.697 | 0.599 | 1.07 | 0.397 | 1.01 | 0.485
FGGRDYSLDEF [MYOF_Y1705_YF] | 0.782 | 0.606 | 0.75 | 0.964 | 0.597 | 0.602 | 0.512 | 0.733 | 0.493 | 1.18 | 0.401 | 0.473 | 0.946 | 0.405 | 0.68 | 0.542
FGSLLYKFAFK [FANCD2_Y458_YF] | 0.983 | 0.732 | 0.449 | 0.91 | 0.464 | 0.445 | 0.527 | 0.678 | 0.336 | 1.09 | 0.306 | 0.37 | 0.964 | 0.4 | 0.726 | 0.453
FGSVDCWEKFF [EEF1AKNMT_Y16_Y16C] | 0.944 | 1.03 | 0.83 | 1.14 | 0.474 | 0.624 | 0.511 | 0.569 | 0.462 | 1.24 | 0.436 | 0.426 | 1.04 | 0.459 | 0.801 | 0.461
FKWAVYCIIGR [NUP93_Y391_R388W_YF] | 1.98 | 1.39 | 1.21 | 1.28 | 1.19 | 0.673 | 0.614 | 0.714 | 1.02 | 1.28 | 0.554 | 0.699 | 1.03 | 0.534 | 0.902 | 0.652
FLTQHYDAEPQ [ANG_Y38_K41E] | 0.992 | 0.635 | 0.612 | 0.853 | 0.413 | 0.554 | 0.583 | 0.684 | 0.511 | 0.989 | 0.478 | 0.534 | 0.627 | 0.502 | 0.785 | 0.601
FQGGTYSKACT [FGG_Y380_S384C_YF] | 0.918 | 0.746 | 0.783 | 0.528 | 0.404 | 0.366 | 0.448 | 0.439 | 0.46 | 0.589 | 0.35 | 0.473 | 0.503 | 0.446 | 0.633 | 0.447
FQNSLYAPDFS [FAM92A_Y226_R222Q_YF] | 0.891 | 0.614 | 0.591 | 0.9 | 4.07 | 4.54 | 1.48 | 1.47 | 3.35 | 0.945 | 2.08 | 2.12 | 1.08 | 7.8 | 0.781 | 2.18
FRASFYRKGGC [ALK_Y1283_YF] | 0.616 | 0.502 | 0.499 | 0.866 | 0.459 | 0.527 | 0.531 | 0.532 | 0.466 | 0.902 | 0.618 | 0.477 | 0.683 | 0.579 | 0.663 | 0.586
FSEVRYMKEPY [HIPK4_Y170_V171M] | 1.06 | 0.757 | 0.484 | 0.852 | 0.425 | 0.496 | 0.485 | 0.72 | 0.437 | 0.988 | 0.36 | 0.536 | 0.781 | 0.463 | 0.695 | 0.432
FSNPAYFVLEG [INPPL1_Y986_N982S_YF] | 0.928 | 0.973 | 1.85 | 1.01 | 0.642 | 0.548 | 6.43 | 4.24 | 0.564 | 0.895 | 0.416 | 0.451 | 3.86 | 3.43 | 0.865 | 0.809
FSPPYYHRNCM [HGD_Y334_R330S] | 0.876 | 0.778 | 0.606 | 0.807 | 0.558 | 0.664 | 0.66 | 0.609 | 0.482 | 0.957 | 0.505 | 0.515 | 0.817 | 0.451 | 0.749 | 0.482
FSTDCYRVGGH [NTRK2_Y707_Y706C_YF] | 0.827 | 0.745 | 0.636 | 1.08 | 0.592 | 0.576 | 0.599 | 0.638 | 0.452 | 1.12 | 0.545 | 0.646 | 1.05 | 0.652 | 0.934 | 0.608
FTDGQYWIRGR [ACSF3_Y466_K462T] | 0.648 | 0.489 | 0.358 | 1.02 | 0.509 | 0.463 | 0.425 | 0.555 | 0.408 | 0.992 | 0.422 | 1.03 | 0.818 | 0.521 | 0.611 | 0.588

The next lines start with results.

SH2 binding enrichment (Grb2 SH2) | SH2 binding enrichment (SHP2-C SH2) | SH2 binding enrichment (c-Src SH2) | Sequence | phosphorylation enrichment (AncSZ) | phosphorylation enrichment (EPHB1) | phosphorylation enrichment (EPHB2) | phosphorylation enrichment (FGFR1) | phosphorylation enrichment (FGFR3) | phosphorylation enrichment (Fer (mouse)) | phosphorylation enrichment (Fes) | phosphorylation enrichment (Fyn) | phosphorylation enrichment (Hck) | phosphorylation enrichment (Jak2) | phosphorylation enrichment (MERTK) | phosphorylation enrichment (c-Abl (mouse)) | phosphorylation enrichment (c-Src)
0.987 | 0.903 | 0.547 | FADIAYNFRHA [PAH_Y166_G171A_YF] | 0.661 | 0.293 | 0.342 | 0.386 | 0.462 | 0.348 | 0.591 | 0.497 | 0.432 | 0.524 | 0.388 | 0.506 | 0.473
1.12 | 0.575 | 0.639 | FADIAYNYRDG [PAH_Y166_H170D] | 0.942 | 0.404 | 0.501 | 0.397 | 0.622 | 0.376 | 0.836 | 0.371 | 0.352 | 1.04 | 0.363 | 0.545 | 0.418
0.877 | 0.717 | 0.52 | FADIAYNYRHG [PAH_Y166] | 0.711 | 0.45 | 0.503 | 0.403 | 0.561 | 0.456 | 0.887 | 0.423 | 0.462 | 0.754 | 0.404 | 0.577 | 0.398
0.917 | 0.688 | 0.586 | FDSPFYQDSLP [TSC1_Y508_R509Q] | 0.848 | 0.503 | 0.489 | 0.357 | 0.599 | 2.88 | 1.09 | 0.482 | 0.521 | 0.805 | 0.431 | 0.737 | 0.473
0.799 | 0.858 | 0.603 | FEEDSYVKRSQ [RET_Y905_YF] | 0.904 | 0.52 | 0.492 | 0.41 | 0.552 | 0.41 | 1.11 | 0.523 | 0.487 | 0.881 | 0.417 | 0.645 | 0.47
0.433 | 0.586 | 0.42 | FFCKFYNKSED [RYR1_Y4864_R4861C] | 1.3 | 0.712 | 0.601 | 0.536 | 0.939 | 0.598 | 1.74 | 0.426 | 0.552 | 1.62 | 0.395 | 1.09 | 0.489
0.831 | 1.36 | 0.631 | FFFDLYGGEKF [PTPN11_Y66_D61Y_YF] | 0.923 | 0.53 | 0.418 | 0.415 | 0.534 | 0.418 | 0.979 | 0.66 | 0.981 | 0.993 | 0.371 | 0.665 | 1.15
0.907 | 1.03 | 0.738 | FFRCHYPLTTL [TNS4_Y644_R642C] | 0.914 | 0.509 | 0.512 | 0.463 | 0.696 | 0.39 | 1.01 | 0.374 | 0.48 | 0.79 | 0.4 | 0.595 | 0.43
0.756 | 0.508 | 0.596 | FGGTVCHSPVS [PRC1_Y511_Y511C] | 0.688 | 0.38 | 0.493 | 0.524 | 0.524 | 0.452 | 0.627 | 0.447 | 0.505 | 0.506 | 0.456 | 0.548 | 0.576
1.01 | 0.762 | 1.24 | FKEQGYHRLPS [RIN1_Y681_P686S_YF] | 1.23 | 1.26 | 0.603 | 2.57 | 0.583 | 0.822 | 1.49 | 0.305 | 0.63 | 2.09 | 1.05 | 1.3 | 0.818
0.785 | 1.46 | 0.445 | FLGEEYVKAVG [TF_Y674_YF] | 0.842 | 0.489 | 0.453 | 0.453 | 0.582 | 0.58 | 0.879 | 0.373 | 0.405 | 0.853 | 0.412 | 0.598 | 0.404
0.722 | 0.746 | 0.496 | FQHLRYIKQLG [SAMHD1_Y146_R143H] | 0.685 | 0.374 | 0.371 | 0.393 | 0.611 | 0.436 | 0.775 | 0.393 | 0.395 | 0.706 | 0.363 | 0.502 | 0.331
0.807 | 0.607 | 0.481 | FRQNGYIPGSN [PCDHGA1_Y895_V894G_YF] | 0.5 | 0.396 | 0.359 | 0.416 | 0.437 | 0.377 | 0.548 | 0.403 | 0.392 | 0.544 | 0.393 | 0.499 | 0.435
